Numbering of substitutions follows the chain as printed. Names and notes keep the numbering of the source.

B1: H183/L072 VH I51Y (antibody, name in Kabat numbering, V domains shown)
VH: QVQLVESGGGLVQPGRSLRLSCAASGFTFSNAWMHWVRQAPGKGLEWVAQYKDKGNAYAAYYAPSVKGRFTISRDDSKNSIYLQMNSLKTEDTAVYYCHYVHYASASTVLPAFGVDAWGQGTTVTVSS
VL: DIVMTQSPLSLPVTPGEPASISCQASQELVHMNRNTYLHWYQQKPGQAPRLLIYKVSNRFPGVPDRFSGSGSGTDFTLKISRVEAEDVGVYYCAQGTSVPFTFGQGTKLEIK
B2: H183/L072 VH K52bL (antibody, name in Kabat numbering, V domains shown)
VH: B1 VH with Y51I, K54L
VL: B1 VL
B3: H183/L072 VH M34H (antibody, name in Kabat numbering, V domains shown)
VH: B1 VH with M34H, Y51I
VL: B1 VL
B4: H183/L072 VH K52bV (antibody, name in Kabat numbering, V domains shown)
VH: B1 VH with Y51I, K54V
VL: B1 VL
B5: H183/L072 VH K52bT (antibody, name in Kabat numbering, V domains shown)
VH: B1 VH with Y51I, K54T
VL: B1 VL
B6: H183/L072 VH K52bP (antibody, name in Kabat numbering, V domains shown)
VH: B1 VH with Y51I, K54P
VL: B1 VL
B7: H183/L072 VH K64P (antibody, name in Kabat numbering, V domains shown)
VH: B1 VH with Y51I, K67P
VL: B1 VL
B8: H183/L072 VH K52bN (antibody, name in Kabat numbering, V domains shown)
VH: B1 VH with Y51I, K54N
VL: B1 VL
B9: H183/L072 VH K52Y (antibody, name in Kabat numbering, V domains shown)
VH: B1 VH with Y51I, K52Y
VL: B1 VL
B10: H183/L072 VH K52bA (antibody, name in Kabat numbering, V domains shown)
VH: B1 VH with Y51I, K54A
VL: B1 VL
B11: H183/L072 VH K52M (antibody, name in Kabat numbering, V domains shown)
VH: B1 VH with Y51I, K52M
VL: B1 VL
B12: H183/L072 VH K52bI (antibody, name in Kabat numbering, V domains shown)
VH: B1 VH with Y51I, K54I
VL: B1 VL
B13: H183/L072 VH L100dA (antibody, name in Kabat numbering, V domains shown)
VH: B1 VH with Y51I, L110A
VL: B1 VL
B14: H183/L072 VH M34P (antibody, name in Kabat numbering, V domains shown)
VH: B1 VH with M34P, Y51I
VL: B1 VL
B15: H183/L072 VH M34F (antibody, name in Kabat numbering, V domains shown)
VH: B1 VH with M34F, Y51I
VL: B1 VL
B16: H183/L072 VH K52Q (antibody, name in Kabat numbering, V domains shown)
VH: B1 VH with Y51I, K52Q
VL: B1 VL
B17: H183/L072 VH N31F (antibody, name in Kabat numbering, V domains shown)
VH: B1 VH with N31F, Y51I
VL: B1 VL
B18: H183/L072 VH K52N (antibody, name in Kabat numbering, V domains shown)
VH: B1 VH with Y51I, K52N
VL: B1 VL
B19: H183/L072 VH K52bW (antibody, name in Kabat numbering, V domains shown)
VH: B1 VH with Y51I, K54W
VL: B1 VL
B20: H183/L072 VH K52bF (antibody, name in Kabat numbering, V domains shown)
VH: B1 VH with Y51I, K54F
VL: B1 VL
B21: H183/L072 VH K64M (antibody, name in Kabat numbering, V domains shown)
VH: B1 VH with Y51I, K67M
VL: B1 VL
B22: H183/L072 VH K64I (antibody, name in Kabat numbering, V domains shown)
VH: B1 VH with Y51I, K67I
VL: B1 VL
B23: H183/L072 VH N31H (antibody, name in Kabat numbering, V domains shown)
VH: B1 VH with N31H, Y51I
VL: B1 VL
B24: H183/L072 VH K52bH (antibody, name in Kabat numbering, V domains shown)
VH: B1 VH with Y51I, K54H
VL: B1 VL
B25: H183/L072 VH K52bE (antibody, name in Kabat numbering, V domains shown)
VH: B1 VH with Y51I, K54E
VL: B1 VL
B26: H183/L072 VH K52bR (antibody, name in Kabat numbering, V domains shown)
VH: B1 VH with Y51I, K54R
VL: B1 VL
B27: H183/L072 VH K52bY (antibody, name in Kabat numbering, V domains shown)
VH: B1 VH with Y51I, K54Y
VL: B1 VL
B28: H183/L072 VH L100dI (antibody, name in Kabat numbering, V domains shown)
VH: B1 VH with Y51I, L110I
VL: B1 VL
B29: H183/L072 VH K52L (antibody, name in Kabat numbering, V domains shown)
VH: B1 VH with Y51I, K52L
VL: B1 VL
B30: H183/L072 VH K64A (antibody, name in Kabat numbering, V domains shown)
VH: B1 VH with Y51I, K67A
VL: B1 VL
B31: H183/L072 VH M34V (antibody, name in Kabat numbering, V domains shown)
VH: B1 VH with M34V, Y51I
VL: B1 VL
B32: H183/L072 VH K52bM (antibody, name in Kabat numbering, V domains shown)
VH: B1 VH with Y51I, K54M
VL: B1 VL
B33: H183/L072 VH M34I (antibody, name in Kabat numbering, V domains shown)
VH: B1 VH with M34I, Y51I
VL: B1 VL
B34: H183/L072 VH M34Y (antibody, name in Kabat numbering, V domains shown)
VH: B1 VH with M34Y, Y51I
VL: B1 VL
B35: H183/L072 VH K52bG (antibody, name in Kabat numbering, V domains shown)
VH: B1 VH with Y51I, K54G
VL: B1 VL
B36: H183/L072 VH K64L (antibody, name in Kabat numbering, V domains shown)
VH: B1 VH with Y51I, K67L
VL: B1 VL
B37: H183/L072 VH K52bQ (antibody, name in Kabat numbering, V domains shown)
VH: B1 VH with Y51I, K54Q
VL: B1 VL
B38: H183/L072 VH M34L (antibody, name in Kabat numbering, V domains shown)
VH: B1 VH with M34L, Y51I
VL: B1 VL
B39: H183/L072 VH K52R (antibody, name in Kabat numbering, V domains shown)
VH: B1 VH with Y51I, K52R
VL: B1 VL
B40: H183/L072 VH L100dM (antibody, name in Kabat numbering, V domains shown)
VH: B1 VH with Y51I, L110M
VL: B1 VL
B41: H183/L072 VH N31I (antibody, name in Kabat numbering, V domains shown)
VH: B1 VH with N31I, Y51I
VL: B1 VL
B42: H183/L072 VH N31G (antibody, name in Kabat numbering, V domains shown)
VH: B1 VH with N31G, Y51I
VL: B1 VL
B43: H183/L072 VH K52bS (antibody, name in Kabat numbering, V domains shown)
VH: B1 VH with Y51I, K54S
VL: B1 VL
B44: H183/L072 VH N31A (antibody, name in Kabat numbering, V domains shown)
VH: B1 VH with N31A, Y51I
VL: B1 VL

In the assay the target is T1, Human CD137 ECD (human).
T1 construct: also called 4-1BB
T1 sequence (chain, as listed by the source limits assumed): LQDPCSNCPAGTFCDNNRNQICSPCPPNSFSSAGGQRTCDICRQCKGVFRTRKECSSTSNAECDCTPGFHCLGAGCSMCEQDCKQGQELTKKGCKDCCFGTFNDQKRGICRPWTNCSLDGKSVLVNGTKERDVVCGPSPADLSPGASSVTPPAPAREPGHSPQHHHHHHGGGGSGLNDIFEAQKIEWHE
Briefly: single mutant vs template dBBDu183H.
As to B1, the “fold change of affinity” value turned out to be 0 fold.

As for B2, the “fold change of affinity” value stood at 0.5 fold.

For the molecule B3, the “fold change of affinity” value came to 0.1 fold.

Regarding B4, the “fold change of affinity” value was found to be 0.6 fold.

In the case of B5, the “fold change of affinity” value turned out to be 0.1 fold.

As for B6, the “fold change of affinity” value was 0.4 fold.

Consider B7, for which the “fold change of affinity” value came to 0.7 fold.

Consider B8, for which the “fold change of affinity” value came out at 0.2 fold.

For B9, the “fold change of affinity” value was determined as 0 fold.

On to B10, for which the “fold change of affinity” value came out at 1 fold.

For B11, the “fold change of affinity” value came to 0.3 fold.

Take B12: the “fold change of affinity” value was 0.8 fold.

On to B13, for which the “fold change of affinity” value amounted to 0.8 fold.

As for B14, the “fold change of affinity” value was 0.3 fold.

In the case of B15, the “fold change of affinity” value came out at 2.5 fold.

As for B16, the “fold change of affinity” value was found to be 0.3 fold.

As to B17, the “fold change of affinity” value was 0.2 fold.

As to B18, the “fold change of affinity” value was determined as 0.2 fold.

With B19, the “fold change of affinity” value was 0.9 fold.

For B20, the “fold change of affinity” value was determined as 0.7 fold.

As for B21, the “fold change of affinity” value amounted to 1.1 fold.

Consider B22, for which the “fold change of affinity” value was 1.1 fold.

In the case of B23, the “fold change of affinity” value turned out to be 0.4 fold.

As to B24, the “fold change of affinity” value came out at 0.7 fold.

Turning to B25, the “fold change of affinity” value stood at 0.5 fold.

Turning to B26, the “fold change of affinity” value came to 1.2 fold.

As for B27, the “fold change of affinity” value amounted to 1 fold.

B28: the “fold change of affinity” value stood at 0 fold.

Consider B29, for which the “fold change of affinity” value amounted to 0.1 fold.

Take B30: the “fold change of affinity” value was 1.2 fold.

In the case of B31, the “fold change of affinity” value came out at 1 fold.

As to B32, the “fold change of affinity” value is 0.6 fold.

For B33, the “fold change of affinity” value worked out at 1.4 fold.

For the molecule B34, the “fold change of affinity” value worked out at 0 fold.

As for B35, the “fold change of affinity” value worked out at 0.9 fold.

For B36, the “fold change of affinity” value came to 1.1 fold.

In the case of B37, the “fold change of affinity” value is 0.8 fold.

As to B38, the “fold change of affinity” value was 1.8 fold.

B39: the “fold change of affinity” value was determined as 0.2 fold.

For B40, the “fold change of affinity” value is 0.9 fold.

Consider B41, for which the “fold change of affinity” value is 0.3 fold.

Regarding B42, the “fold change of affinity” value was 0.3 fold.

With B43, the “fold change of affinity” value was found to be 0.8 fold.

For the molecule B44, the “fold change of affinity” value was 0.3 fold.

Source of the values: patent US20210388087A1 (Chugai, published 2021).
